Measured values reported in patent US20220411472A1 (FRED HUTCHINSON CANCER CENTER, published 2022).
Read-outs that look alike come from different tables or passages of the source. Blank lines part the entries; values can stand above or below the molecule they belong to.

Assays:
[1] = target: Biotinylated Tir-10_v2 peptide, Biotin-Ahx-EHI-pY-DEVAAD
[2] = target: Tir10 phosphotyrosyl peptide, FITC-Ahx-EHI-pY-DEVAAD
[3] = target: Biotinylated Tir-10_v2 peptide, Biotin-Ahx-EHI-pY-DEVAAD; remark: listed apart in the source
[4] = target: T1, OX40 receptor on activated human CD8+ T-cells (human, UniProt P43489 29-277); test: flow cytometry, CD8+ T-cells 4 days after anti-CD3/anti-CD28 bead activation, 2 µg/mL construct, secondary anti-His iFluor647; axis APC: OX40; lower panel
T1 construct: whole, on cells; also called CD134
T1 sequence (looked up): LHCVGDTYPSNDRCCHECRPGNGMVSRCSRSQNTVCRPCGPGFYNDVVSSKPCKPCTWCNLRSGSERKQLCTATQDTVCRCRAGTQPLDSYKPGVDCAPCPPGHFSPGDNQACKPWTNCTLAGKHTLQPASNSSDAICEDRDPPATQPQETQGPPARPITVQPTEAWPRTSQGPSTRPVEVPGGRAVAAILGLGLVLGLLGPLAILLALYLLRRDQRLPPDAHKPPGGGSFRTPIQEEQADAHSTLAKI
Procedure: T-cell isolation, proliferation and activation assays. […] Cells were incubated for 30 min at 37° C. with cTRP24₆SS-scTrimer^OX40L (2 μg/mL) or cTRP24₆SS-scTrimer^4-1BBL (2 μg/mL) and subsequently stained at 4° C. using THE anti-His Ab (GenScript; #A00186).

Molecule: Free SH2 domain of the human Nck2 adapter protein
- maximum binding response [1]: 10 RU
- response [1]: 80 RU
- EC50 (read off the curve) [2]: 400 nM
- maximum binding response [3]: 125 RU

- binding result [4]: binds
B1: cTRP246SS-scTrimer^OX40L (6-repeat disulfide-stapled cTRP tetramer with a single chain trimer of OX40L on each subunit) (ligand)
chain: QVSHRYPRIQSIKVQFTEYKKEKGFILTSQKEDEIMKVQNNSVIINCDGFYLISLKGYFSQEVNISLHYQKDEEPLFQLKKVRSVNSLMVASLTYKDKVYLNVTTDNTSLDDFHVNGGELILIHQNPGEFCVLGGGGSQVSHRYPRIQSIKVQFTEYKKEKGFILTSQKEDEIMKVQNNSVIINCDGFYLISLKGYFSQEVNISLHYQKDEEPLFQLKKVRSVNSLMVASLTYKDKVYLNVTTDNTSLDDFHVNGGELILIHQNPGEFCVLGGGGSQVSHRYPRIQSIKVQFTEYKKEKGFILTSQKEDEIMKVQNNSVIINCDGFYLISLKGYFSQEVNISLHYQKDEEPLFQLKKVRSVNSLMVASLTYKDKVYLNVTTDNTSLDDFHVNGGELILIHQNPGEFCVLGGGGSGGGGSCEAIKAAAELGKAGISSEEILELLRAAHELGLDPEAIKAAAELGKAGISSEEILELLRAAHELGLDPEAIKAAAELGKAGISSEEILELLRAAHELGLDPEAIKAAAELGKAGISSEEILELLRAAHELGLDPEAIKAAAELGKAGISSEEILELLRAAHELGLDPECIKAAAELGKAGISSEEILELLRAAHELGLGGSHHHHHH
notes: also called cTRP246SS-scTrimer^OX4OL; cTRP246SS-scFv^OX40L
